The text below walks through data of paper PMC2814163.

Experiment [1] concerns the target plasminogen (Homo sapiens) (UniProt P00747). The following applies: cited from earlier work.
The target in experiment [2] is Dom1-3His (extracytoplasmic domains 1-3 of the bovine CI-MPR, residues 1-432, C-terminal His6) (bovine) (UniProt P08169). The experiment can be described thus: SPR. (In general: In SPR one partner is held on a chip, and binding of the other changes the refractive index at the surface.)
Sequence of Dom1-3His (extracytoplasmic domains 1-3 of the bovine CI-MPR, residues 1-432, C-terminal His6) (bovine) (P08169 45-476): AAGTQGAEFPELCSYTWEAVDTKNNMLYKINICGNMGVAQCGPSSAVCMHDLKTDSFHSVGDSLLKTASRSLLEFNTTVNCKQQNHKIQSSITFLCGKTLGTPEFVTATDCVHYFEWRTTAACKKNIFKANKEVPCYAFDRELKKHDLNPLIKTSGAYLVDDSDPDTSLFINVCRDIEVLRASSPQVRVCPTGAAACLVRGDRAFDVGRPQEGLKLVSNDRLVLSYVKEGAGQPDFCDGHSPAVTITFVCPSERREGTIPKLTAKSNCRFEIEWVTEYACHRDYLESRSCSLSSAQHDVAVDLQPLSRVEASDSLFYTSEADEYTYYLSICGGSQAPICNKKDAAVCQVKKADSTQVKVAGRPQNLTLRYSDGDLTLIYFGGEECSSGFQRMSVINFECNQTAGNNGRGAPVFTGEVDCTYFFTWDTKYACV
The target of experiment [3] is Dom1-2His (domains 1-2 of the bovine CI-MPR, residues 1-281, C-terminal His6) (bovine) (UniProt P08169). The experiment can be described thus: SPR.
Sequence of Dom1-2His (domains 1-2 of the bovine CI-MPR, residues 1-281, C-terminal His6) (bovine) (P08169 45-325): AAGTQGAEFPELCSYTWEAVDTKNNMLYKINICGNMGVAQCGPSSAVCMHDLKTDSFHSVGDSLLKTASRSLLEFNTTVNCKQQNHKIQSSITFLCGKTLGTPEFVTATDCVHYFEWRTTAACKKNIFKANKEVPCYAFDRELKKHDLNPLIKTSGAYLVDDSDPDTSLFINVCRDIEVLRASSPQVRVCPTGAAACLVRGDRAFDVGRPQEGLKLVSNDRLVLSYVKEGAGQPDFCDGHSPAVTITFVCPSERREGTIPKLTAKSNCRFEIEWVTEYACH
The target of the next experiment is Dom1-3HisK82A (bovine) (UniProt P08169). The experiment can be described thus: SPR.
Sequence of Dom1-3HisK82A (bovine) (P08169 45-476 K126A): as the sequence (P08169 45-476) above, with K82A counted along it
For a further experiment, the target named is Dom1-3HisK53A (bovine) (UniProt P08169). The experiment can be described thus: SPR.
Sequence of Dom1-3HisK53A (bovine) (P08169 45-476 K97A): as the sequence (P08169 45-476) above, with K53A counted along it
Experiment [4] has as its target soluble form of the cation-independent mannose 6-phosphate receptor isolated from fetal bovine serum (bovine) (UniProt P08169). The experiment can be described thus: SPR.
The target in the next experiment is Dom1-3HisR118A (bovine) (UniProt P08169). The experiment can be described thus: SPR.
Sequence of Dom1-3HisR118A (bovine) (P08169 45-476 R162A): as the sequence (P08169 45-476) above, with R118A counted along it
In another experiment the target is Dom1-3HisK98A (bovine) (UniProt P08169). The experiment can be described thus: SPR.
Sequence of Dom1-3HisK98A (bovine) (P08169 45-476 K142A): as the sequence (P08169 45-476) above, with K98A counted along it
The target in experiment [5] is Dom1-3His (extracytoplasmic domains 1-3 of the bovine CI-MPR, residues 1-432, C-terminal His6) (bovine) (UniProt P08169). The experiment can be described thus: SPR. The source holds these as a separate data set.
The next experiment addresses Dom1-3HisK23A (bovine) (UniProt P08169). The experiment can be described thus: SPR.
The next experiment concerns the target Dom1-3HisK125A (bovine) (UniProt P08169). The experiment can be described thus: SPR.
Experiment [6] concerns the target Dom1His (domain 1 of the bovine CI-MPR, residues 1-123, C-terminal His6) (bovine) (UniProt P08169). The experiment can be described thus: SPR.
The target in another experiment is Dom1-3HisK215A (bovine) (UniProt P08169). The experiment can be described thus: SPR.
Sequence of Dom1-3HisK215A (bovine) (P08169 45-476 K259A): as the sequence (P08169 45-476) above, with K215A counted along it
In a further experiment the target is Dom1-3HisK132A (bovine) (UniProt P08169). The experiment can be described thus: SPR.
Sequence of Dom1-3HisK132A (bovine) (P08169 45-476 K176A): as the sequence (P08169 45-476) above, with K132A counted along it

Like-named read-outs stand apart in the source and are kept apart here.

Sequence of Dom1His (domain 1 of the bovine CI-MPR, residues 1-123, C-terminal His6) (bovine) (P08169 45-167): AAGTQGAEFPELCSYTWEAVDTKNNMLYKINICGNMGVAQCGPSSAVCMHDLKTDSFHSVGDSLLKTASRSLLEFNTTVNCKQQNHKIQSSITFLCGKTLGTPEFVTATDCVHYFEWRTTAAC
Sequence of soluble form of the cation-independent mannose 6-phosphate receptor isolated from fetal bovine serum (bovine) (P08169 45-2313): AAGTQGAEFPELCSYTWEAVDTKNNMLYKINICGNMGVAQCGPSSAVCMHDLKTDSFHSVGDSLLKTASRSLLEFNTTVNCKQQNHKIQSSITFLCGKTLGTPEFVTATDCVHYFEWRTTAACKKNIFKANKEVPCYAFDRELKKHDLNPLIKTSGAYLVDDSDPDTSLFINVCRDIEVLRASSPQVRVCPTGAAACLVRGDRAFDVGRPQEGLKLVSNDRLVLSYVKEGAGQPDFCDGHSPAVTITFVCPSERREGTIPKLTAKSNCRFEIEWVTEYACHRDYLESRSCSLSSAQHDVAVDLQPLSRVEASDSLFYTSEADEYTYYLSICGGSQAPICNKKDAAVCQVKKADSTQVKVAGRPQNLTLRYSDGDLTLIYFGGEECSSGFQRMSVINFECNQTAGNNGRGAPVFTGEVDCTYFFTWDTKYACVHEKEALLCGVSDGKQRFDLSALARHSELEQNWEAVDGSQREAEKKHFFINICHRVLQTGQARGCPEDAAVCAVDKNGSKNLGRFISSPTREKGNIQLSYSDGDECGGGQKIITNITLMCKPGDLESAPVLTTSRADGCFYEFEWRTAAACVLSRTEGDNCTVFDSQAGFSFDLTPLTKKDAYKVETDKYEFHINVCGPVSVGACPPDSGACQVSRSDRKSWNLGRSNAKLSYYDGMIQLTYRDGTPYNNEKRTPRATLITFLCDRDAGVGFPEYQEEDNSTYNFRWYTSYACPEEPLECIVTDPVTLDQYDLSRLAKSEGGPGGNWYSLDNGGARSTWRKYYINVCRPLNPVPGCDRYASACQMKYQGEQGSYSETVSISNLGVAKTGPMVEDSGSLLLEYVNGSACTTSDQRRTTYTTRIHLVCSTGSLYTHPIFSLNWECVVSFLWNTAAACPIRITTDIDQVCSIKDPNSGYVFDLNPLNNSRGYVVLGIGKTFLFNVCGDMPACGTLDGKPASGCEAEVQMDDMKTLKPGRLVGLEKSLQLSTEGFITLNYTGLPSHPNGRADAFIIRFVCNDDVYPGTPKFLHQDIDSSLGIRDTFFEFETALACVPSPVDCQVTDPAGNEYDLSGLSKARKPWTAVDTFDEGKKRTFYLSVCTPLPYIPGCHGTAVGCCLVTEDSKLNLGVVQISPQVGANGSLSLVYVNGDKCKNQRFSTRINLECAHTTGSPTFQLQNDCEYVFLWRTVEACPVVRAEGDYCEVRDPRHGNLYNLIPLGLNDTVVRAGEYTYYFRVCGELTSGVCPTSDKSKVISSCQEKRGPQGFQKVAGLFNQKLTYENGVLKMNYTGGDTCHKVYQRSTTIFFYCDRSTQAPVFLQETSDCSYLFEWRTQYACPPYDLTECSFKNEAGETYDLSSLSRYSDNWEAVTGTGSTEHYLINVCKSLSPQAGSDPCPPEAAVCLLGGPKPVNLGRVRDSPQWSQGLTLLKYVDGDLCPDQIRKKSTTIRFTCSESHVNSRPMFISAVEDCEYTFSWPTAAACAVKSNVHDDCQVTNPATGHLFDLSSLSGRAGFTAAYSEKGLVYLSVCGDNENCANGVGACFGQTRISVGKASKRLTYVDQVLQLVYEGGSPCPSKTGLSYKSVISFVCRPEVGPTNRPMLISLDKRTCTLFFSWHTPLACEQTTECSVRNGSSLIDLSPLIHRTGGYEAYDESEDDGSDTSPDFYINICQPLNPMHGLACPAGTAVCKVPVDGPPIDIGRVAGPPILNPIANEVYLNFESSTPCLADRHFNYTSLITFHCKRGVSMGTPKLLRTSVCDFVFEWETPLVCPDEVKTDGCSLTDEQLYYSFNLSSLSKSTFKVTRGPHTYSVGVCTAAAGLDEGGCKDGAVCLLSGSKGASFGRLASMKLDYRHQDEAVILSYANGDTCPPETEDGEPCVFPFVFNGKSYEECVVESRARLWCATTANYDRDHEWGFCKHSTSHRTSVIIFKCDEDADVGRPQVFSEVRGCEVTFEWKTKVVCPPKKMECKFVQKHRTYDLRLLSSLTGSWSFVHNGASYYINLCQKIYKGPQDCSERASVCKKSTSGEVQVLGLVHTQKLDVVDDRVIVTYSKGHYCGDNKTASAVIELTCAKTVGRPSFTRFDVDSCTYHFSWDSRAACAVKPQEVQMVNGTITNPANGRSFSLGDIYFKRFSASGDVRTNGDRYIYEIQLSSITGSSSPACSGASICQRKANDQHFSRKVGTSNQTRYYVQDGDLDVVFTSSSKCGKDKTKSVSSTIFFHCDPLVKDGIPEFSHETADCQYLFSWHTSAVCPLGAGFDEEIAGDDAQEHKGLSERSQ
Sequence of Dom1-3HisK23A (bovine) (P08169 45-476 K67A): as the sequence (P08169 45-476) above, with K23A counted along it
Sequence of plasminogen (Homo sapiens) (P00747 20-810): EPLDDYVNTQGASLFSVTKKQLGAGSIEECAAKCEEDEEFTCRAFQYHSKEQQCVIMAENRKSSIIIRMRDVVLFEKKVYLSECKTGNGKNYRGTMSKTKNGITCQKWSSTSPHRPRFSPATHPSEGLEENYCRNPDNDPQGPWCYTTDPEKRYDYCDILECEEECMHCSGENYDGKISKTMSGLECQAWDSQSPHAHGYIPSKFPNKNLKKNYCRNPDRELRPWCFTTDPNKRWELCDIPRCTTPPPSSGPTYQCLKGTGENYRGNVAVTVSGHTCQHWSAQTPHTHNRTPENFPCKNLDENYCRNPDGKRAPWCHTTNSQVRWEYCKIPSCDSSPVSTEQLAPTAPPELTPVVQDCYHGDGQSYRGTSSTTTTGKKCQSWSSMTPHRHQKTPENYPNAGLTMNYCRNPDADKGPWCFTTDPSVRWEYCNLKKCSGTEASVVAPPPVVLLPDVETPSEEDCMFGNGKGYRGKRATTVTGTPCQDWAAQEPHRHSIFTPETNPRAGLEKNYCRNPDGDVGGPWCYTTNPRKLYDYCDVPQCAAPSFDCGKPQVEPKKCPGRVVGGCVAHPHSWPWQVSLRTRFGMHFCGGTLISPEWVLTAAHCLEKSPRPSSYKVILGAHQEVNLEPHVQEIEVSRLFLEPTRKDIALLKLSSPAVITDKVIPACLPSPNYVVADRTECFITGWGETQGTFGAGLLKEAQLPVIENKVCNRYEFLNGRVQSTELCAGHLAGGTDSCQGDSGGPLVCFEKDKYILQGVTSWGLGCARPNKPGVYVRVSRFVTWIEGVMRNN
Sequence of Dom1-3HisK125A (bovine) (P08169 45-476 K169A): as the sequence (P08169 45-476) above, with K125A counted along it

On to CI-MPR (from UniProt P11717), for which the Kd in experiment [1] was 270 nM.

Consider “bovine Glu-plasminogen (natural protein)”, for which the equilibrium dissociation constant (Kd) in [2] was 131 nM; with Dom1-3HisK82A (bovine), 69 nM; in the experiment with Dom1-3HisK53A (bovine), over 2000 nM; with Dom1-3HisR118A (bovine) it was 21 nM; with Dom1-3HisK98A (bovine), 24 nM; in [5] it was 271 nM. For the same substance, the Kd is 33 nM with Dom1-3HisK23A (bovine), over 2000 nM in the experiment with Dom1-3HisK125A (bovine), 10 nM in the experiment with Dom1-3HisK215A (bovine) and 64 nM with Dom1-3HisK132A (bovine). Besides, the Kd2 (two-site model) was 170 nM in experiment [3], 290 nM in [4] and over 2 µM in [6]. Besides, in experiment [6], the Kd1 (two-site model) is over 2 µM.

Turning to “human angiostatin K1-4 (domain or fragment)”, the Kd in [5] turned out to be 170 nM.

Usually Kd stands for the constant that tells how readily two partners part at equilibrium.
